Key:
[1] = test system: human iPS cell line RPChiPS771-2; assay: Adhesion culture with addition of WNT3A protein into medium, quantitative real-time PCR; format: cell-based
Protocol: (§1) These cells were lysed using TRIzol™ Reagent (Thermo Fisher Scientific K.K.). Total RNA was isolated and purified from a cell solution obtained by lysing with TRIzol™ Reagent using a PureLink (registered trademark) RNA Mini kit (Thermo Fisher Scientific K.K.). A concentration of the purified RNA was measured using BioSpec-nano (Shimadzu Corporation), and 40 ng was separated. 2 μL of ReverTra Ace (registered trademark) qPCR RT Master Mix (TOYOBO CO., LTD.) and RNase Free dH2O were added to the separated RNA to prepare 10 μL. cDNA synthesis was performed using SimpliAmp Thermal Cycler (Thermo Fisher Scientific K.K.). […] A synthesized cDNA solution was diluted 100-fold with 10 mM Tris-HCl pH 8.0 (NACALAI TESQUE, INC.) and added to a 384-well PCR plate (Thermo Fisher Scientific K.K.) at 5 μL/well. KOD SYBR® qPCR Mix (TOYOBO CO., LTD.), a Forward primer prepared to 50 μM, a Reverse primer prepared to 50 μM, and DEPC-treated water (NACALAI TESQUE, INC.) were mixed at a ratio of 100:1:1:48. This mixed solution was added to the above-mentioned 384-well PCR plate at 15 μL/well and mixed. For the primers, bACT, OCT4, SOX2, Nanog, Brachyury, and SOX17 were used. The 384-well PCR plate was subjected to centrifugal separation to remove air bubbles in the wells, and quantitative real-time PCR analysis was performed using QuantStudio 7 Flex Real-Time PCR System (Thermo Fisher Scientific K.K.).
(§2) The human iPS cell lines 201B7 and RPChiPS771-2 maintenance-cultured in the procedure of Step 1 of Reference Example 3 were treated with Accutase for 3 to 5 minutes to release the cells from the dish. The cells were dispersed into single cells by pipetting. These cells were suspended in a StemFit (registered trademark) AK02N medium containing Y-27632 at a final concentration of 10 μM. A part of the cells was stained with trypan blue to measure the number of living cells. A cell suspension was prepared so that it contained 4.6×10^4 cells per mL using the StemFit (registered trademark) AK02N medium containing Y-27632 a final concentration of 10 μM. 2 mL of the cell suspension per well was seeded in a 6-well plate for cell culture (Sumitomo Bakelite Co., Ltd.) coated with 0.5 μg of Vitronectin per 1 cm^2. WNT3A protein (R&D Systems, Inc.) was added to each of the wells so that final concentrations were 10 pg/mL, 100 pg/mL, 1 ng/mL, 10 ng/mL, and 100 ng/mL, and adhesion culture was performed at 37° C. in a 5% CO2 environment. The day when the cells were seeded was defined as day 0 of the culture. The adhesion culture was performed until day 5 of the culture. Medium exchange was performed every day. […] Phase-contrast images of the cells were acquired using a phase-contrast microscope on day 5 of the culture. FIG. 8 and FIG. 9 show the acquired phase-contrast images. Furthermore, on day 5 of the culture, the culture supernatant was recovered from the wells. 0.5 mL of Accutase was added per well to treat the cells for 3 to 5 minutes. The cells were released from the wells, and were dispersed into single cells by pipetting. These cells were suspended in a StemFit (registered trademark) AK02N medium containing Y-27632 at a final concentration of 10 μM. A part of the cells was stained with trypan blue to measure the number of living cells.
(§3) The phase-contrast images on day 5 of the culture were analyzed with image analysis software (for example, ImageJ), and a proportion of a surface area of cells with respect to a culture area was calculated. From this value and the culture area (9.2 cm^2/well), an area in which the cell surface was in contact with the medium was calculated. Furthermore, a surface area (cm^2) in contact with the medium per cell was calculated from an area in which the cell surface was in contact with the medium and from the number of living cells on day 5 of the culture. […]

[2] = test system: human iPS cell line 201B7; assay: as above; format: cell-based; details: Line 201B7, day 5
Protocol: as §1, §2, §3

[3] = WNT3A protein in medium 10 pg/mL, adhesion culture, Line RPChiPS771-2, day 5
[4] = WNT3A protein in medium 100 pg/mL, adhesion culture, Line RPChiPS771-2, day 5
[5] = WNT3A protein in medium 1 ng/mL, adhesion culture, Line RPChiPS771-2, day 5
[6] = WNT3A protein in medium 10 ng/mL, adhesion culture, Line RPChiPS771-2, day 5
[7] = WNT3A protein in medium 100 ng/mL, adhesion culture, Line RPChiPS771-2, day 5
[8] = adhesion culture with added WNT3A, lines 201B7 and RPChiPS771-2, day 5
[9] = WNT3A protein in medium 10 pg/mL
[10] = WNT3A protein in medium 100 pg/mL
[11] = WNT3A protein in medium 1 ng/mL
[12] = WNT3A protein in medium 10 ng/mL
[13] = WNT3A protein in medium 100 ng/mL

B1: WNT3A protein: WNT3A protein (R&D Systems, Inc.) added to the adhesion culture medium at 10 pg/mL to 100 ng/mL (protein, UniProt P56704 19-352, looked up)
Protein Wnt-3a: SYPIWWSLAVGPQYSSLGSQPILCASIPGLVPKQLRFCRNYVEIMPSVAEGIKIGIQECQHQFRGRRWNCTTVHDSLAIFGPVLDKATRESAFVHAIASAGVAFAVTRSCAEGTAAICGCSSRHQGSPGKGWKWGGCSEDIEFGGMVSREFADARENRPDARSAMNRHNNEAGRQAIASHMHLKCKCHGLSGSCEVKTCWWSQPDFRAIGDFLKDKYDSASEMVVEKHRESRGWVETLRPRYTYFKVPTERDLVYYEASPNFCEPNPETGSFGTRDRTCNVSSHGIDGCDLLCCGRGHNARAERRREKCRCVFHWCCYVSCQECTRVYDVHTCK
Relative gene expression level with respect to ACTB in 2^−Λ Ct, Nanog [1, 3]: 5.06 × 10^−2 | Relative gene expression level with respect to ACTB in 2^−Λ Ct, OCT4 [1, 3]: 4.06 × 10^−1 | Relative gene expression level with respect to ACTB in 2^−Λ Ct, SOX2 [1, 3]: 2.64 × 10^−2 | Relative gene expression level with respect to ACTB in 2^−Λ Ct, Nanog [1, 4]: 5.30 × 10^−2 | Relative gene expression level with respect to ACTB in 2^−Λ Ct, OCT4 [1, 4]: 4.44 × 10^−1 | Relative gene expression level with respect to ACTB in 2^−Λ Ct, SOX2 [1, 4]: 2.77 × 10^−2 | Relative gene expression level with respect to ACTB in 2^−Λ Ct, Nanog [1, 5]: 4.88 × 10^−2 | Relative gene expression level with respect to ACTB in 2^−Λ Ct, OCT4 [1, 5]: 3.87 × 10^−1 | Relative gene expression level with respect to ACTB in 2^−Λ Ct, SOX2 [1, 5]: 2.89 × 10^−2 | Relative gene expression level with respect to ACTB in 2^−Λ Ct, Nanog [1, 6]: 5.53 × 10^−2 | Relative gene expression level with respect to ACTB in 2^−Λ Ct, OCT4 [1, 6]: 4.42 × 10^−1 | Relative gene expression level with respect to ACTB in 2^−Λ Ct, SOX2 [1, 6]: 2.77 × 10^−2 | Relative gene expression level with respect to ACTB in 2^−Λ Ct, Brachyury [1, 7]: 3.07 × 10^−4 | Relative gene expression level with respect to ACTB in 2^−Λ Ct, Nanog [1, 7]: 6.65 × 10^−2 | Relative gene expression level with respect to ACTB in 2^−Λ Ct, OCT4 [1, 7]: 4.56 × 10^−1 | Relative gene expression level with respect to ACTB in 2^−Λ Ct, SOX2 [1, 7]: 1.66 × 10^−2 | Relative gene expression level with respect to ACTB in 2^−Λ Ct, SOX17 [1, 7]: 1.11 × 10^−3 | Amount of WNT3A protein contained in unit of medium in contact with unit area of cell surface at which expression of the differentiation marker gene was detected [1, 8]: ≥ 5.2×10^4 μg/mL·cm^2 | Amount of WNT3A protein contained in unit of medium in contact with unit area of cell surface at which expression of the differentiation marker gene was not detected [1, 8]: ≤ 6.7×10^3 μg/mL·cm^2 | Relative gene expression level with respect to ACTB in 2^−Λ Ct, Nanog [2, 9]: 2.59 × 10^−2 | Relative gene expression level with respect to ACTB in 2^−Λ Ct, OCT4 [2, 9]: 2.27 × 10^−1 | Relative gene expression level with respect to ACTB in 2^−Λ Ct, SOX2 [2, 9]: 2.44 × 10^−2 | Relative gene expression level with respect to ACTB in 2^−Λ Ct, Nanog [2, 10]: 2.91 × 10^−2 | Relative gene expression level with respect to ACTB in 2^−Λ Ct, OCT4 [2, 10]: 2.63 × 10^−1 | Relative gene expression level with respect to ACTB in 2^−Λ Ct, SOX2 [2, 10]: 2.75 × 10^−2 | Relative gene expression level with respect to ACTB in 2^−Λ Ct, Nanog [2, 11]: 2.82 × 10^−2 | Relative gene expression level with respect to ACTB in 2^−Λ Ct, OCT4 [2, 11]: 2.50 × 10^−1 | Relative gene expression level with respect to ACTB in 2^−Λ Ct, SOX2 [2, 11]: 2.57 × 10^−2 | Relative gene expression level with respect to ACTB in 2^−Λ Ct, Nanog [2, 12]: 2.96 × 10^−2 | Relative gene expression level with respect to ACTB in 2^−Λ Ct, OCT4 [2, 12]: 2.56 × 10^−1 | Relative gene expression level with respect to ACTB in 2^−Λ Ct, SOX2 [2, 12]: 2.55 × 10^−2 | Relative gene expression level with respect to ACTB in 2^−Λ Ct, Brachyury [2, 13]: 3.14 × 10^−4 | Relative gene expression level with respect to ACTB in 2^−Λ Ct, Nanog [2, 13]: 6.13 × 10^−2 | Relative gene expression level with respect to ACTB in 2^−Λ Ct, OCT4 [2, 13]: 3.60 × 10^−1 | Relative gene expression level with respect to ACTB in 2^−Λ Ct, SOX2 [2, 13]: 2.08 × 10^−2 | Relative gene expression level with respect to ACTB in 2^−Λ Ct, SOX17 [2, 13]: 4.03 × 10^−5
